Measured values: patent publication US20220195014A1

Target: recombinant human NPR3 extracellular domain portion (amino acids Gly27-Ser482) fused to the Fc portion of mouse IgG2a (human; mouse) (UniProt P17342)
Test: blocking ELISA, plate-coated hNPR3-mFc, competitor biotin-hANP, 1 µg/mL control antibody

Chain of UniProt P17342 (P17342 27-482 limits assumed): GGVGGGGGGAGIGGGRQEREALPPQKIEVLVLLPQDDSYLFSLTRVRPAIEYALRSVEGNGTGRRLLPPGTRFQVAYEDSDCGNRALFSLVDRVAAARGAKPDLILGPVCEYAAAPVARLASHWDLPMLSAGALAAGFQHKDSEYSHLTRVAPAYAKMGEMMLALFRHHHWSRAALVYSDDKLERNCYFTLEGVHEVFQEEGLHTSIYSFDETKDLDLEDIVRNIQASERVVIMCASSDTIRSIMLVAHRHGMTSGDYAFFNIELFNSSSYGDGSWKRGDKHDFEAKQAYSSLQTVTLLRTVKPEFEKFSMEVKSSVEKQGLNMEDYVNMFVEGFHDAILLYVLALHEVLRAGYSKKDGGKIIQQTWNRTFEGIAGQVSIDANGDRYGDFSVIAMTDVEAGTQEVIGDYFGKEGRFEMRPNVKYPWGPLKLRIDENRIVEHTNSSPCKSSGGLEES

## non-binding human IgG1 isotype control antibody (blocking ELISA)
  percent blockade: 32%
